# Data reported in article PMC5154190, “HBV maintains electrostatic homeostasis by modulating negative charges from phosphoserine and encapsidated nucleic acids” (Scientific Reports, 2016).
# Biological target: the molecule itself
# Assay: native gel or EMSA
row,Protein,binding result
1,"HBc mutant S3A, expressed in HuH-7 cells (natural protein) MDIDPYKEFGATVELLSFLPSDFFPSVRDLLDTASALYREALESPEHCSPHHTALRQAILCWGELMTLATWVGVNLEDPASRDLVVSYVNTNMGLKFRQLLWFHISCLTFGRETVIEYLVSFGVWIRTPPAYRPPNAPILSTLPETTVVRRRGRAPRRRTPAPRRRRSQAPRRRRSQSRESQC",binds
2,"HBc mutant S7A, expressed in HuH-7 cells (natural protein) MDIDPYKEFGATVELLSFLPSDFFPSVRDLLDTASALYREALESPEHCSPHHTALRQAILCWGELMTLATWVGVNLEDPASRDLVVSYVNTNMGLKFRQLLWFHISCLTFGRETVIEYLVSFGVWIRTPPAYRPPNAPILSTLPETTVVRRRGRAPRRRTPAPRRRRAQAPRRRRAQAREAQC",binds
3,"HBc mutant S3D, expressed in HuH-7 cells (natural protein) MDIDPYKEFGATVELLSFLPSDFFPSVRDLLDTASALYREALESPEHCSPHHTALRQAILCWGELMTLATWVGVNLEDPASRDLVVSYVNTNMGLKFRQLLWFHISCLTFGRETVIEYLVSFGVWIRTPPAYRPPNAPILSTLPETTVVRRRGRDPRRRTPDPRRRRSQDPRRRRSQSRESQC",binds
4,"HBc mutant S7D, expressed in HuH-7 cells (natural protein) MDIDPYKEFGATVELLSFLPSDFFPSVRDLLDTASALYREALESPEHCSPHHTALRQAILCWGELMTLATWVGVNLEDPASRDLVVSYVNTNMGLKFRQLLWFHISCLTFGRETVIEYLVSFGVWIRTPPAYRPPNAPILSTLPETTVVRRRGRDPRRRTPDPRRRRDQDPRRRRDQDREDQC",binds
5,"HBc mutant S7D, E. coli-expressed (natural protein) MDIDPYKEFGATVELLSFLPSDFFPSVRDLLDTASALYREALESPEHCSPHHTALRQAILCWGELMTLATWVGVNLEDPASRDLVVSYVNTNMGLKFRQLLWFHISCLTFGRETVIEYLVSFGVWIRTPPAYRPPNAPILSTLPETTVVRRRGRDPRRRTPDPRRRRDQDPRRRRDQDREDQC",binds
6,"HBc mutant S3D, E. coli-expressed (natural protein) MDIDPYKEFGATVELLSFLPSDFFPSVRDLLDTASALYREALESPEHCSPHHTALRQAILCWGELMTLATWVGVNLEDPASRDLVVSYVNTNMGLKFRQLLWFHISCLTFGRETVIEYLVSFGVWIRTPPAYRPPNAPILSTLPETTVVRRRGRDPRRRTPDPRRRRSQDPRRRRSQSRESQC",binds
